Experimental data from publication PMC6107515.
Like-named read-outs stand apart in the source and are kept apart here.

Tests used:
[1] = molecular target: human complement Factor H (human) (UniProt P08603); assay: SPR; Biacore X100; FH coupled to a CM4 chip, recombinant PspCs injected at five increasing concentrations (kinetic titration); PBS-P+ buffer; fitted with a 1:1 binding model
[2] = molecular target: human complement Factor H (human) (UniProt P08603); assay: as above; remark: listed apart in the source

human complement Factor H (human), sequence (P08603 19-1231): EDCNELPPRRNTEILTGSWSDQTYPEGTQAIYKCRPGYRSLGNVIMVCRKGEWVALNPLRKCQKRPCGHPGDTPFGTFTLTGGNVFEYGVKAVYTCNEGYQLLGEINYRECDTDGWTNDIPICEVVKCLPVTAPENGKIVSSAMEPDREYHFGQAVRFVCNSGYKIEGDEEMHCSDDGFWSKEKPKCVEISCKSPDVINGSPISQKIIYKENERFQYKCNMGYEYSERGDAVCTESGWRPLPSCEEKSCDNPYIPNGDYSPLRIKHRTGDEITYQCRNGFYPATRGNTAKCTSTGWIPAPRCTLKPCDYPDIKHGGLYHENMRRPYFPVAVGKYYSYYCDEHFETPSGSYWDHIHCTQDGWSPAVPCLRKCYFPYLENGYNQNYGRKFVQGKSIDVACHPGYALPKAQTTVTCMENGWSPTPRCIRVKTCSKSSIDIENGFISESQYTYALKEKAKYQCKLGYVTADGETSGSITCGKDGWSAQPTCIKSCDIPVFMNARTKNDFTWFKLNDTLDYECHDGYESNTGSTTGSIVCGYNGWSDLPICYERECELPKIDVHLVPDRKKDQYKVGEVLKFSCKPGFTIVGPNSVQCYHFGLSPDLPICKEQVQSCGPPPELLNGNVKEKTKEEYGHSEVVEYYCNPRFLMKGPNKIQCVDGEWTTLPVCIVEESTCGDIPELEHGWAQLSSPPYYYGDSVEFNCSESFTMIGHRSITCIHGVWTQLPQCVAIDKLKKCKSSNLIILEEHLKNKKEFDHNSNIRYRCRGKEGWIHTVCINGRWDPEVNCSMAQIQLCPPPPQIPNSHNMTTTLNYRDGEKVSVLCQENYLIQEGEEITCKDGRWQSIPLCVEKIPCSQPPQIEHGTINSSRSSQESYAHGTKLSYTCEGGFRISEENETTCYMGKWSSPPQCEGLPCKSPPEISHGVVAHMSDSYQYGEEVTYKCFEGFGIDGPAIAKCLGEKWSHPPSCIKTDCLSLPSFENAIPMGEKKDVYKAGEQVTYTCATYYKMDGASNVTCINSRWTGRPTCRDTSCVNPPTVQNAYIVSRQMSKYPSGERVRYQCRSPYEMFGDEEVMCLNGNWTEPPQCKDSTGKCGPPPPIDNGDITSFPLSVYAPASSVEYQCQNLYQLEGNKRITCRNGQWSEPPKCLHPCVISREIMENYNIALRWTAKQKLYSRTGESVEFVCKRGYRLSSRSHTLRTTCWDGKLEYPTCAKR

Work on “recombinant PspC (D39) (domain or fragment)” yielded a Kd [1] of 0.0885 nM, a Kd [2] of 0.086 nM and a koff [2] of 4.3e-05 s⁻¹. The kon [2] was 480000 M⁻¹ s⁻¹.
